The chains are these.
B1: CD2BP2256-332 (other)
chain: AEEELETPTPTQRGEAESRGDGLVDVMWEYKWENTGDAELYGPFTSAQMQTWVSEGYFPDGVYCRKLDPPGGQFYNS
notes: Yeast two-hybrid prey; vector fusion part not described; also called nine-residue truncation
B2: CD2BP2256-341 (yeast two-hybrid clone) (other)
chain: AEEELETPTPTQRGEAESRGDGLVDVMWEYKWENTGDAELYGPFTSAQMQTWVSEGYFPDGVYCRKLDPPGGQFYNSKRIDFDLYT
notes: Yeast two-hybrid prey in pJG4-5; vector fusion part not described; also called shortest functional clone
B3: CD2BP2 Y312A (other)
chain: B2 chain with Y57A
notes: Yeast two-hybrid prey
B4: CD2BP2 F313A (other)
chain: B2 chain with F58A
notes: Yeast two-hybrid prey
B5: CD2BP2 G311A (other)
chain: B2 chain with G56A
notes: Yeast two-hybrid prey
B6: CD2BP2 W307A (other)
chain: B2 chain with W52A
notes: Yeast two-hybrid prey
B7: CD2 cytoplasmic region (CD2221-327) (receptor, human, UniProt P06729 245-351, looked up)
chain: NDEELETRAHRVATEERGRKPHQIPASTPQNPATSQHPPPPPGHRSQAPSHRPPPPGHRVQHQPQKRPPAPSGTQVHQQKGPPLPRPRVQPKPPHGAAENSLSPSSN
notes: range 221-327; Yeast two-hybrid bait expressed from vector pEG202; also called CD2 cytoplasmic tail; human CD2 cytoplasmic segment amino acids 221-327
B8: CD2BP2256-341Δ297-313 (other)
chain: AEEELETPTPTQRGEAESRGDGLVDVMWEYKWENTGDAELYPDGVYCRKLDPPGGQFYNSKRIDFDLYT
notes: Yeast two-hybrid prey; vector fusion part not described; also called deletion clone lacking those 17 residues
B9: CD2221-271 (receptor, human, UniProt P06729 245-295, looked up)
chain: NDEELETRAHRVATEERGRKPHQIPASTPQNPATSQHPPPPPGHRSQAPSH
notes: range 221-271; CD2 cytoplasmic tail truncation mutant for yeast two-hybrid analysis; vector fusion part not described
B10: FLAG-CD2BP2 (other)
chain: DYKDDDDKMPKRKVTFQGVGDEEDEDEIIVPKKKLVDPVAGSGGPGSRFKGKHSLDSDEEEDDDDGGSSKYDILASEDVEGQEAATLPSEGGGRITPFNLQEEMEEGHFDADGNYFLNRDAQIRDSWLDNIDWVKIRERPPGQRQASDSEEEDSLGQTSMSAQALLEGLLELLLPRETVAGALRRLGARGGGKGRKGPGQPSSPQRLDRLSGLADQMVARGNLGVYQETRERLAMRLKGLGCQTLGPHNPTPPPSLDMFAEELAEEELETPTPTQRGEAESRGDGLVDVMWEYKWENTGDAELYGPFTSAQMQTWVSEGYFPDGVYCRKLDPPGGQFYNSKRIDFDLYT
notes: Expressed in COS7 (pcDNA1.1) and Jurkat J77 (pcDNA3.1) cells and tested from cell lysates; also called full length FLAG-CD2BP2 construct

Positions count from the first letter of the chain named.

Assay [1] has as its target B7. The assay can be described thus: yeast two-hybrid. The source says: (§1) The yeast hybrid system interaction trap was used as described (Finley and Brent, Interaction Trap Cloning with Yeast (Oxford Univ. Press), NY (1995)). In brief, as bait, a human CD2 cDNA encoding the cytoplasmic segment amino acids 221-327 was transferred into the pEG202 vector. cDNAs from an activated human T cell cDNA library, CD2 binding protein 2 (CD2BP2), or mutant cDNA variants of CD2BP2 were introduced into the pJG4-5 vector between EcoRI and Xho1 restriction sites. Mutations were created by a previously described method (Higuchi et al., Nucleic Acids Res. 16:7351-7367 (1988)), and were confirmed by DNA sequencing. Both of the yeast shuttle vectors were introduced into the yeast strain EGY48, were plated onto selection plates containing glucose, and were incubated at 30° C. After 48 hours greater than 100 colonies were mixed, were transferred onto a plate containing galactose/raffinose and 5-bromo-4-chloro-3-indolyl-D-galactoside, and were incubated for 48 hours at 30° C. followed by 5 days at 8° C. The strength of the interaction was scored based on the time point when the blue color appeared in comparison with a negative control: ++++, <6 hours; +++, 12 hours: ++, <24 hours; +, <48 hours; ±, <72 hours; and −, >72 hours. CD2 mutations were generated and analyzed in a similar manner.

In assay [2] the target is T1, CD2BP2129-287 (human, UniProt O95400 129-287).
T1 construct: Yeast two-hybrid prey; vector fusion part not described
T1 sequence: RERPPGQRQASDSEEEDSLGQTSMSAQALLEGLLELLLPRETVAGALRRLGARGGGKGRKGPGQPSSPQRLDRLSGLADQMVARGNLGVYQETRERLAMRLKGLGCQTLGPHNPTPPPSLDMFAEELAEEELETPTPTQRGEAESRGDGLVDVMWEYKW
Nature of the assay: yeast two-hybrid.
Text: as §1

The target of assay [3] is T2, CD2BP2129-254 (human, UniProt O95400 129-254).
T2 construct: Yeast two-hybrid prey; vector fusion part not described
T2 sequence: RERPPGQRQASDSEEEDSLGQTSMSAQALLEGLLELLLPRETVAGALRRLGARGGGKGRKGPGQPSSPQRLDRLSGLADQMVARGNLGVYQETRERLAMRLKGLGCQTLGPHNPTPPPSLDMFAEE
The assay can be described thus: yeast two-hybrid.
Text: as §1

The target in assay [4] is T3, CD2BP2225-341 (yeast two-hybrid clone) (human, UniProt O95400 225-341).
T3 construct: Yeast two-hybrid prey in pJG4-5; vector fusion part not described
T3 sequence: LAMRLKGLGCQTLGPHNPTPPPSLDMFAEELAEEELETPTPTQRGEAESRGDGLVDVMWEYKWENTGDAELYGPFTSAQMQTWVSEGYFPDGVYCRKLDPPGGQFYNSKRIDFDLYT
The assay can be described thus: yeast two-hybrid.
Text: as §1

In assay [5] the target is T4, CD2 binding protein 2 (CD2BP2) (human, UniProt O95400 1-341, limits assumed).
T4 construct: CD2BP2 as used in the yeast two-hybrid tests against CD2 derivatives (vector pJG4-5)
T4 sequence: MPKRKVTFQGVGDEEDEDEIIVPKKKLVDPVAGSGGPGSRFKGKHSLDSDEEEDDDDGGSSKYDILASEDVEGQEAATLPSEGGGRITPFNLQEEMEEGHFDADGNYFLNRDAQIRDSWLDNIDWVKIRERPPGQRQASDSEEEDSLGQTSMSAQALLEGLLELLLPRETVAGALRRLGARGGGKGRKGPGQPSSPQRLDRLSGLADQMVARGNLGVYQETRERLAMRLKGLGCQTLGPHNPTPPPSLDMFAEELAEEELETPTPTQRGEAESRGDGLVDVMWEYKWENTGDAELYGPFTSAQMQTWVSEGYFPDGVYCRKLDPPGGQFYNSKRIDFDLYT
Nature of the assay: yeast two-hybrid.
Text: as §1

Assay [6] has as its target T5, human CD4 (human, UniProt P01730 26-458).
T5 construct: whole, on cells; Control in the COS7 co-immunoprecipitation; tested in cell lysate
Nature of the assay: co-immunoprecipitation from cotransfected COS7 cells, anti-FLAG Western blot. As for the experimental part: COS7 cells were transfected with FLAG-CD2BP2 cDNA (lane 1), with FLAG-CD2BP2 and a human CD2 cDNA (lanes 2 and 3), or with FLAG-CD2BP2 and a human CD4 cDNA (lanes 4 and 5), then were lysed and immunoprecipitated with the anti-FLAG mAb M2 (lanes 3 and 5), with anti-CD2 mAb (anti-T11₁)(lanes 1 and 2), or with anti-CD4 mAb (19Thy5D7) (lane 4). Subsequently, the amount of FLAG-CD2BP2 in the immunoprecipitates was assayed by anti-FLAG mAb M2 Western blotting.
To determine whether CD2BP2 associates specifically with CD2, COS7 cells were cotransfected with FLAG-CD2BP2 and CD2 cDNA, or, as a control, CD4 cDNA. Subsequently, the CD2 protein was immunoprecipitated with anti-CD2 mAb and association with CD2BP2 examined by Western blotting with anti-FLAG mAb. […] The amount of CD2BP2 associated with CD2, however, is only a fraction of the CD2BP2 protein expressed in the COS7 cells.
As the vectors for transfection, pcDNA1.1 and pcDNA3.1 (Invitrogen) were used with COS7 and with Jurkat cells, respectively. For expression of CD2 and CD4 in COS7 cells, a pCDM8 plasmid containing each was used (Sakiharna et al, Proc. Natl. Acad. Sci. USA 92:6444-6448 (1995); Li et al., J. Mol. Biol. 263:209-226 (1996)). […]
On the technique in general: In western blotting, separated proteins are transferred to a membrane and probed.

Consider B1, for which the binding result in assay [1] was “no binding”. Same read-out and setting: the value for B2 was “binds”; that for B3 was “no binding”.

Consider B4, for which, in assay [1], the binding result is on record as “no binding”.

On to B5, for which the binding result in assay [1] was “no binding”. With B6, the binding result in assay [1] was “no binding”. With B7, the binding result was “no binding” in assay [2], “no binding” in assay [3] and “binds” in assay [4]. In the case of B8, in assay [1], the binding result was “no binding”. With B9, the binding result in assay [5] is listed as “no binding”. In the case of B10, the binding result in assay [6] was “no binding”.

These data come from patent publication US20020127657A1 (Dana-Farber, published 2002).
